Earlier results in paper PMC3386954.

Target: Capillary morphogenesis gene 2 protein (Homo sapiens) (UniProt P58335)

In the case of “Protective antigen (from UniProt P13423)”, the Kd is given as greater than 170 pM.
